In PMC3394726 (PLoS ONE, 2012):

Target: T1, human complement C1q (human, UniProt P02745;P02746;P02747)
T1 construct: source: purified from human plasma; endogenous, normal human serum (NHS); copies: + +
Test: ELISA; SMSB3 or SMSB4 coated at 10 µg/ml; serial dilutions of normal human serum (0-100%) for 10, 20, 40 or 60 min at 37°C; bound complement factors detected with specific antibodies
Details: one partner purified

T1 sequence (P02745 23-245, chain 1 of 3): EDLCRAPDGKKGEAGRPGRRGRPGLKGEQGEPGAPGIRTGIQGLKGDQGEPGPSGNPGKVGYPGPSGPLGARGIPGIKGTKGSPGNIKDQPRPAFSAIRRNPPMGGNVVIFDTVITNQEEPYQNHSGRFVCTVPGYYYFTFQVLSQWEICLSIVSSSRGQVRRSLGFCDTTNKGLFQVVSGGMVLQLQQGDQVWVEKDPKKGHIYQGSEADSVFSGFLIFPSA
T1 sequence (P02746 28-253, chain 2 of 3): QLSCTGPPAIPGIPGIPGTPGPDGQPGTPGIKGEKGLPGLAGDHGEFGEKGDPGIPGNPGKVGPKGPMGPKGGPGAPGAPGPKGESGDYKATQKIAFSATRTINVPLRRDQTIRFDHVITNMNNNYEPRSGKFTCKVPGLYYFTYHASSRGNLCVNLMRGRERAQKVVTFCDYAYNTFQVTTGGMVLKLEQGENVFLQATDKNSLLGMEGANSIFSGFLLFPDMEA
T1 sequence (P02747 29-245, chain 3 of 3): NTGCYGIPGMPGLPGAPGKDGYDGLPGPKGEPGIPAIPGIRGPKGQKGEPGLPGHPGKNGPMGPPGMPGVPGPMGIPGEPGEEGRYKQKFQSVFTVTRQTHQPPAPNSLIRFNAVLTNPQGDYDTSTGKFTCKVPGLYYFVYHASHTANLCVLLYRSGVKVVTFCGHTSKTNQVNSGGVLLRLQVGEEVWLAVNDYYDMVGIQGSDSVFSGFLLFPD

B1: scabies mite serpin SMSB4, wild type (natural protein)
chain: KPQHHSQSHQQPVLASDPNEDPLKALNLLQQQKQFTEHFFQQNNEKLNLLGGQEIIKCFDVNFTSNVLNNIDHISKIMIDGSRHFGLRLFQILNLFEPKTSSPGLVYSPISVWSTLILTYLGSDGVTEQELSQKLKLNQLPKPLVALAYRSLKWWKDFNVLKLMQNHTDATQVCSANKLYINDHLLVKDCFRTIFGDEIEMKSFSSRPQESLSEINDWVRVQTQGHIPNLLGPESISSNTNIVMINAVYFKSFWAQQFDSSKTKKQRFYVSMNEELEADMMTMDSVSVMYGISEELRASAVEIPYSNPDYSFLIILPDITRSLDSMIRTLTWNKIQLLLQNMYDDEVKLMIPKFRSEQEFELAGPLFSLGIKKLFDPRYANLNSIFMNSNNSRVALDSVIHKSFISVDEEGTEAAAATAVIFARSGRPAFPTEFIADRPFLYIIRDVSSNQLLFIGTVRRPYASQAIVA
notes: also called SMB4; SMSB4/wt
B1: binds.
